Experimental data reported in US20140031283A1, “ANTICANCER FUSION PROTEIN” (ADAMED SP. Z O.O., priority 2011, published 2014).

B1: Ex. 4: fusion protein: 34-amino acid fragment of human fetoprotein at C-terminus of TRAIL121-281, MMP and uPA cleavage sites (protein)
chain: RVAAHITGTRGRSNTLSSPNSKNEKALGRKINSWESSRSGHSFLSNLHLRNGELVIHEKGFYYIYSQTYFRFQEEIKENTKNDKQMVQYIYKYTSYPDPILLMKSARNSCWSKDAEYGLYSIYQGGIFELKENDRIFVSVTNEHLIDMDHEASFFGAFLVGPLGLAGRVVRLSEDKLLACGEGAADIIIGHLCIRHEMTPVNPG
modifications: synthesized, a fusion protein comprising: a fragment of TRAIL protein, a fragment of human fetoprotein and cleavage sites recognized by uPA and MMP.
notes: fusion protein: 34-amino acid fragment of human fetoprotein at C-terminus of TRAIL121-281, MMP and uPA cleavage sites
B2: Ex. 11: fusion protein: 18-amino acid peptide DD2 from DOC-2/DAB2 with 7 Arg transporting domain at C-terminus of TRAIL95-281, MMP and uPA sites (protein)
chain: TSEETISTVQEKQQNISPLVRERGPQRVAAHITGTRGRSNTLSSPNSKNEKALGRKINSWESSRSGHSFLSNLHLRNGELVIHEKGFYYIYSQTYFRFQEEIKENTKNDKQMVQYIYKYTSYPDPILLMKSARNSCWSKDAEYGLYSIYQGGIFELKENDRIFVSVTNEHLIDMDHEASFFGAFLVGCAACAAACGGGPLGLAGRVVRRRRRRRRGGGFQLRQPPLVPSRKGE
modifications: synthesized, a fusion protein comprising: a fragment of TRAIL protein, a fragment of peptide DD2 derived from DOC-2/DAB2, cleavage sites recognized by uPA and MMP, an arginine transporting domain and a cysteine-alanine-glycine steric linker.
notes: fusion protein: 18-amino acid peptide DD2 from DOC-2/DAB2 with 7 Arg transporting domain at C-terminus of TRAIL95-281, MMP and uPA sites
B3: Ex. 7: fusion protein: 8-amino acid fragment of human fetoprotein at C-terminus of TRAIL95-281, cysteine-alanine linker, MMP and uPA cleavage sites (protein)
chain: TSEETISTVQEKQQNISPLVRERGPQRVAAHITGTRGRSNTLSSPNSKNEKALGRKINSWESSRSGHSFLSNLHLRNGELVIHEKGFYYIYSQTYFRFQEEIKENTKNDKQMVQYIYKYTSYPDPILLMKSARNSCWSKDAEYGLYSIYQGGIFELKENDRIFVSVTNEHLIDMDHEASFFGAFLVGCAACAAACPLGLAGRVVREMTPVNPG
modifications: synthesized, a fusion protein comprising: a fragment of TRAIL protein, a fragment of human fetoprotein, cleavage sites recognized by uPA and MMP and a flexible cysteine - alanine linker.
notes: fusion protein: 8-amino acid fragment of human fetoprotein at C-terminus of TRAIL95-281, cysteine-alanine linker, MMP and uPA cleavage sites
B4: Ex. 5: fusion protein: 34-amino acid fragment of human fetoprotein at N-terminus of TRAIL95-281, uPA and MMP cleavage sites (protein)
chain: LSEDKLLACGEGAADIIIGHLCIRHEMTPVNPGRVVRPLGLAGTSEETISTVQEKQQNISPLVRERGPQRVAAHITGTRGRSNTLSSPNSKNEKALGRKINSWESSRSGHSFLSNLHLRNGELVIHEKGFYYIYSQTYFRFQEEIKENTKNDKQMVQYIYKYTSYPDPILLMKSARNSCWSKDAEYGLYSIYQGGIFELKENDRIFVSVTNEHLIDMDHEASFFGAFLVG
modifications: synthesized, a fusion protein comprising: a fragment of TRAIL protein, a fragment of human fetoprotein and cleavage sites recognized by uPA and MMP.
notes: fusion protein: 34-amino acid fragment of human fetoprotein at N-terminus of TRAIL95-281, uPA and MMP cleavage sites
B5: Ex. 16: fusion protein: hexapeptide inhibitor of E2F with antennapedia sequence at N-terminus of TRAIL121-281, uPA and MMP sites (protein)
chain: FWLRFTKPRRPYRVVRPLGLAGRVAAHITGTRGRSNTLSSPNSKNEKALGRKINSWESSRSGHSFLSNLHLRNGELVIHEKGFYYIYSQTYFRFQEEIKENTKNDKQMVQYIYKYTSYPDPILLMKSARNSCWSKDAEYGLYSIYQGGIFELKENDRIFVSVTNEHLIDMDHEASFFGAFLVG
modifications: synthesized, a fusion protein comprising: a fragment of TRAIL protein, a peptide inhibitor of E2F, cleavage sites recognized by urokinase uPA and metalloprotease MMP and an antennapedia transporting domain.
B6: Ex. 15: fusion protein: 15-amino acid fragment of PH domain of TCL1 protein with antennapedia sequence at C-terminus of TRAIL121-281, MMP and uPA sites (protein)
chain: RVAAHITGTRGRSNTLSSPNSKNEKALGRKINSWESSRSGHSFLSNLHLRNGELVIHEKGFYYIYSQTYFRFQEEIKENTKNDKQMVQYIYKYTSYPDPILLMKSARNSCWSKDAEYGLYSIYQGGIFELKENDRIFVSVTNEHLIDMDHEASFFGAFLVGGSPLGLAGRVVRDRQIKIWFQNRRMKWKKAVTDHPDRLWAWEKF
modifications: synthesized, a fusion protein comprising: a fragment of TRAIL protein, a fragment of PH domain of TCL1 protein - acting as Akt coactivator, cleavage sites recognized by uPA and MMP, an antennapedia transporting domain and a glycine-cysteine linker.

Tests used:
A549 = experiment: MTT cytotoxicity test, A549 (human lung cancer); format: cell-based; conditions: for A549 IC50: continuous incubation over 72 h, test MTT; for A549 mean (IC50): Table 4, mean/SD part
Source text: (§1) MTT assay is a colorimetric assay used to measure proliferation, viability and cytotoxicity of cells. It consists in decomposition of a yellow tetrazolium salt MTT (4,5-dimethyl-2-thiazolyl)-2,5-diphenyltetrazolium bromide) to the water-insoluble purple dye formazan by mitochondrial enzyme succinate-tetrazolium reductase 1. MTT reduction occurs only in living cells. Data analysis consists in determining IC50 concentration of the protein (in ng/ml), at which the 50% reduction in the number of cells occurs in the population treated compared to control cells. Results were analyzed using GraphPad Prism 5.0 software. The test was performed according to the literature descriptions (Cells, J E, (1998). Cell Biology, a Laboratory Handbook, second edition, Academic Press, San Diego; Yang, Y., Koh, L W, Tsai, J H., (2004); Involvement of viral and chemical factors with oral cancer in Taiwan, Jpn J Clin Oncol, 34 (4), 176-183). Cell culture medium was diluted to a defined density (10^4-10^5 cells per 100 μl). Then 100 μl of appropriately diluted cell suspension was applied to a 96-well plate in triplicates. Thus prepared cells were incubated for 24 h at 37° C. in 5% or 10% CO2, depending on the medium used, and then to the cells (in 100 μl of medium) further 100 μl of the medium containing various concentrations of tested proteins were added. In the case of combination hTRAIL114-281 and p21WAF effector protein, 100 μl of the medium containing mixture of hTRAIL114-281 and p21WAF effector protein in molar ratio 1:1 was added. After incubation of the cells with tested proteins over the period of next 72 hours, which is equivalent to 3-4 times of cell division, the medium with the test protein was added with […] of MTT working solution [5 mg/ml], and incubation was continued for 3 h at 37° C. in 5% CO2. Then the medium with MTT solution was removed, and formazan crystals were dissolved by adding 100 μl of DMSO. After stirring, the absorbance was measured at 570 nm (reference filter 690 nm).
(§2) The results of in vitro cytotoxicity tests are summarized as IC50 values (ng/ml), which corresponds to the protein concentration at which the cytotoxic effect of fusion proteins is observed at the level of 50% with respect to control cells treated only with solvent. Each experiment represents the average value of at least two independent experiments performed in triplicates. As a criterion of lack of activity of protein preparations the IC50 limit of 2000 ng/ml was adopted.

MES-SA = experiment: MTT cytotoxicity test, MES-SA (human uterine sarcoma); format: cell-based; conditions: for MES-SA IC50: continuous incubation over 72 h, test MTT; for MES-SA mean (IC50): Table 4, mean/SD part
Source text: as §1, §2

MES-SA/Dx5 = experiment: MTT cytotoxicity test, MES-SA/Dx5 (multidrug-resistant human uterine sarcoma); format: cell-based; conditions: for MES-SA/Dx5 IC50: continuous incubation over 72 h, test MTT; for MES-SA/Dx5 mean (IC50): Table 4, mean/SD part
Source text: as §1, §2
Cells selected for this test included tumor cell lines that are naturally resistant to TRAIL protein (the criterion of natural resistance to TRAIL: IC50 for TRAIL protein >2000), as well as tumor cell lines sensitive to TRAIL protein and resistant to doxorubicin line MES-SA/DX5 as a cancer line resistant to conventional anticancer medicaments.

SK-MES-1 = experiment: MTT cytotoxicity test, SK-MES-1 (human lung cancer); format: cell-based; conditions: for SK-MES-1 IC50: continuous incubation over 72 h, test MTT; for SK-MES-1 mean (IC50): Table 4, mean/SD part
Source text: as §1, §2

MCF10A = experiment: MTT cytotoxicity test, MCF10A (mammary epithelial cells); format: cell-based; conditions: for MCF10A IC50: continuous incubation over 72 h, test MTT; for MCF10A mean (IC50): Table 4, mean/SD part
Source text: as §1, §2

HCT-116 = conditions: for HCT116 IC50: continuous incubation over 72 h, test MTT; for HCT116 mean (IC50): Table 4, mean/SD part
Experimental: Data analysis consists in determining IC50 concentration of the protein (in ng/ml), at which the 50% reduction in the number of cells occurs in the population treated compared to control cells. Results were analyzed using GraphPad Prism 5.0 software. […] Cell culture medium was diluted to a defined density (10^4-10^5 cells per 100 μl). Then 100 μl of appropriately diluted cell suspension was applied to a 96-well plate in triplicates. Thus prepared cells were incubated for 24 h at 37° C. in 5% or 10% CO2, depending on the medium used, and then to the cells (in 100 μl of medium) further 100 μl of the medium containing various concentrations of tested proteins were added. […] After incubation of the cells with tested proteins over the period of next 72 hours, which is equivalent to 3-4 times of cell division, the medium with the test protein was added with 20 ml of MTT working solution [5 mg/ml], and incubation was continued for 3 h at 37° C. in 5% CO2. Then the medium with MTT solution was removed, and formazan crystals were dissolved by adding 100 μl of DMSO. After stirring, the absorbance was measured at 570 nm (reference filter 690 nm).

[1] = test system: TRAIL sensitive cell lines; experiment: in vitro cytotoxicity tests, TRAIL sensitive cell lines; format: cell-based; conditions: continuous incubation over 72 h, test MTT; versus rhTRAIL 95-281 (cell line not given)
Source text: as §1, with “nm). […]” for “nm).”

Row | Molecule | A549 IC50 (A549) [µg/mL] | MES-SA IC50 (MES-SA) [µg/mL] | MES-SA/Dx5 IC50 (MES-SA/Dx5) [µg/mL] | SK-MES-1 IC50 (SK-MES-1) [µg/mL] | MCF10A IC50 (MCF10A) [µg/mL] | HCT116 IC50 (HCT-116) [µg/mL] | IC50 [1] [µg/mL] | A549 mean (IC50) (A549) [µg/mL] | MES-SA mean (IC50) (MES-SA) [µg/mL] | MES-SA/Dx5 mean (IC50) (MES-SA/Dx5) [µg/mL] | SK-MES-1 mean (IC50) (SK-MES-1) [µg/mL] | MCF10A mean (IC50) (MCF10A) [µg/mL] | HCT116 mean (IC50) (HCT-116) [µg/mL]
1 | B1 | >2 | 0.2053 | 0.01136 | 0.01011 | >2 | 0.03225 |  |  |  |  |  |  | 
2 | B2 | 0.257 | 0.1044 | 0.00885 | 0.03348 | 0.1333 | 0.08429 | 0.063 |  |  |  |  |  | 
3 | B3 | >2 | >2 | 0.02211 | 0.0366 | >2 | 0.0635 | 0.105 |  |  |  |  |  | 
4 | B4 |  |  |  |  |  |  |  | 3 | 0.095 | 0.01116 | 0.07965 | 8.949 | 0.1798
5 | B5 |  |  |  |  |  |  |  | 0.04285 | 0.00846 | 0.001421 | 0.003045 | 0.09228 | 0.01585
6 | B6 |  |  |  |  |  |  |  | 1 | 0.123 | 0.3289 | 0.0784 | 1 | 0.6035
